Reference: patent US20100316648A1 (published 2010)
Each block holds one molecule with its values, some of them ahead of it. Ends that are not written are not given here.

B1: Plg-RKT carboxyl-terminal peptide CEQSKLFSDK (SEQ ID NO: 33) (peptide)
peptide: CEQSKLFSDK
modifications: also: coupled to bovine serum albumin (BSA), attachment site not given here
notes: also called C-terminal peptide of mouse Plg-RKT; Plg-RKT polypeptide
B2: Plasminogen (ligand, UniProt P00747 20-810, looked up)
chain: EPLDDYVNTQGASLFSVTKKQLGAGSIEECAAKCEEDEEFTCRAFQYHSKEQQCVIMAENRKSSIIIRMRDVVLFEKKVYLSECKTGNGKNYRGTMSKTKNGITCQKWSSTSPHRPRFSPATHPSEGLEENYCRNPDNDPQGPWCYTTDPEKRYDYCDILECEEECMHCSGENYDGKISKTMSGLECQAWDSQSPHAHGYIPSKFPNKNLKKNYCRNPDRELRPWCFTTDPNKRWELCDIPRCTTPPPSSGPTYQCLKGTGENYRGNVAVTVSGHTCQHWSAQTPHTHNRTPENFPCKNLDENYCRNPDGKRAPWCHTTNSQVRWEYCKIPSCDSSPVSTEQLAPTAPPELTPVVQDCYHGDGQSYRGTSSTTTTGKKCQSWSSMTPHRHQKTPENYPNAGLTMNYCRNPDADKGPWCFTTDPSVRWEYCNLKKCSGTEASVVAPPPVVLLPDVETPSEEDCMFGNGKGYRGKRATTVTGTPCQDWAAQEPHRHSIFTPETNPRAGLEKNYCRNPDGDVGGPWCYTTNPRKLYDYCDVPQCAAPSFDCGKPQVEPKKCPGRVVGGCVAHPHSWPWQVSLRTRFGMHFCGGTLISPEWVLTAAHCLEKSPRPSSYKVILGAHQEVNLEPHVQEIEVSRLFLEPTRKDIALLKLSSPAVITDKVIPACLPSPNYVVADRTECFITGWGETQGTFGAGLLKEAQLPVIENKVCNRYEFLNGRVQSTELCAGHLAGGTDSCQGDSGGPLVCFEKDKYILQGVTSWGLGCARPNKPGVYVRVSRFVTWIEGVMRNN
modifications: directly biotinylated in the assays of Examples 7-9; coupled to Sepharose in Example 1
notes: The same entry is used for unlabelled, biotinylated and Sepharose-coupled plasminogen; also called Plg; biotinylated plasminogen

How the values were obtained:
Plasminogen [1] = target: B2; experiment: ELISA, detection control: plasminogen bound to BSA-coupled peptide, isotype control instead of anti-plasminogen MAb
Plasminogen [2] = target: B2; experiment: competition ELISA, soluble peptide against biotinylated plasminogen on immobilized …-BSA
plasminogen fragment K4 = target: T1, plasminogen fragment K4 (UniProt P00747 374-459); experiment: competition ELISA against biotinylated plasminogen on immobilized peptide
T1 construct: range 354-439
T1 sequence (looked up): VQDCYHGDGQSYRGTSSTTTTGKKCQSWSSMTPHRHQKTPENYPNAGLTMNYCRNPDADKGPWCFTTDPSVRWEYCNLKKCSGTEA
Procedure: (§1) 9. Recognition of Plg-RKT by Plasminogen Fragments in Other Assays to Define the ligand recognition specificity of Plg-RKT for plasminogen. the Plg-RKT polypeptide, […] (SEQ ID NO: 33), was coupled to microtiter wells. Plasminogen was directly biotinylated and then incubated with the immobilized peptide and detected with streptavidin-HRP, as above. (Plasminogen bound to the peptide in a concentration-dependent manner. In controls for specificity, biotinylated-Plg binding was competed by unlabeled Plg and no biotinylated-Plg binding to the reverse peptide was detected.) Plasminogen domains containing disulfide bonded kringle (K) structures were obtained by elastase digestion as described ³⁹. (K1-3 is comprised of the plasminogen amino acid sequences, Tyr⁷⁹-Val³³⁷ or Tyr⁷⁹-Val³⁵³. K4 is contained within the plasminogen amino acid sequences, Val³⁵⁴-Ala⁴³⁹. K5-PD is contained within the plasminogen amino acid sequences, Val⁴⁴²-Asn⁷⁹⁰ and contains kringle 5 as well as the latent protease domain.)

[3] = target: T2, plasminogen fragment K1-3 (UniProt P00747 99-357); experiment: as above
T2 construct: range 79-337 or 79-353; it may not count on the precursor entry
Procedure: as §1

[4] = target: B1; experiment: ELISA on BSA-coupled peptide, anti-plasminogen MAb detection
Description: Our isolation method was consistent with exposure of the carboxyl-terminus of Plg-RKT (with its carboxyl-terminal lysine) on the cell surface and also with the ability of the carboxyl-terminal domain to bind to plasminogen. For verification, we tested whether a synthetic peptide, corresponding to the C-terminus of Plg-RKT could bind plasminogen. The peptide, […] (SEQ ID NO: 33) corresponding to the ten C-terminal amino acids of Plg-RKT with cysteine substituted for R₁₃₈) was coupled to bovine serum albumin (BSA) and then coated onto wells of microtiter plates at 10 μg/ml. The wells were blocked with 5% BSA. Plasminogen (0.2 μM) was incubated with the wells, followed by our anti-plasminogen MAb ³⁶ and detection with HRP-conjugated goat anti-mouse IgG (Biosource, Camarillo, Calif.). Plasminogen bound to the peptide in a concentration dependent manner with 50% maximal binding achieved at a plasminogen concentration of ˜10 nM. The binding was specific because it was blocked in the presence of epsilon-aminocaproic acid (EACA), consistent with the ability of EACA to inhibit plasminogen binding to differentiated Hoxa9-ER4 cells. […] In controls for the detection method, O.D.₄₉₀ values obtained using an isotype control antibody or in the absence of added plasminogen were <5% of the values for plasminogen binding to the BSA-coupled peptide detected with anti-plasminogen MAb.

- O.D.490 as percent of the value with anti-plasminogen MAb (Plasminogen [1]): < 5%
Molecule: isotype control antibody (Example 4)

- IC50 (Plasminogen [2]): 1 µM
Molecule: CEQSRFFIDK (also called wild type peptide) [peptide CEQSRFFIDK (SEQ ID NO: 34), corresponding to the C terminus of human Plg-RKT]

Molecule: B1
- binding result (plasminogen fragment K4): binds
- binding result [3]: binds

Molecule: B2
- EC50 [4]: ~0.01 µM
